In doi:10.1101/2022.12.30.522300 (bioRxiv, 2022):
Values belong to the molecule of their own block, whether it stands above or below them.

How the values were obtained:
[1] = target: RBM17–UHM (RBM17/ΔNΔG), from pETM11 (human); experiment: ITC
[2] = target: T1, full-length RBM17, from pETM11 (human, UniProt Q96I25 1-401); experiment: NMR titration
T1 sequence (looked up): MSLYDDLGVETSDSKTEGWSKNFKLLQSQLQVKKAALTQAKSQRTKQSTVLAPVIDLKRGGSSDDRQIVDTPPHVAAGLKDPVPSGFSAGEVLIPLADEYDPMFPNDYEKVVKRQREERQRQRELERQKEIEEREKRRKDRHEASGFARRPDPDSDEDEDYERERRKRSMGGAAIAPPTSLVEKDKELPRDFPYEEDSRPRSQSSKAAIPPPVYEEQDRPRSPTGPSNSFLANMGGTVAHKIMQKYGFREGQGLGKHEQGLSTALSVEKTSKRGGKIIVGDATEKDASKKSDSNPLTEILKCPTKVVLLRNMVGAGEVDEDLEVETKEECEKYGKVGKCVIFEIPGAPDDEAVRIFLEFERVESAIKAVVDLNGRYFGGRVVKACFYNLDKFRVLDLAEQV

GST-RBM17 = target: T2, GST-RBM17 (human, UniProt Q96I25 1-401); experiment: pull-down
T2 sequence (looked up): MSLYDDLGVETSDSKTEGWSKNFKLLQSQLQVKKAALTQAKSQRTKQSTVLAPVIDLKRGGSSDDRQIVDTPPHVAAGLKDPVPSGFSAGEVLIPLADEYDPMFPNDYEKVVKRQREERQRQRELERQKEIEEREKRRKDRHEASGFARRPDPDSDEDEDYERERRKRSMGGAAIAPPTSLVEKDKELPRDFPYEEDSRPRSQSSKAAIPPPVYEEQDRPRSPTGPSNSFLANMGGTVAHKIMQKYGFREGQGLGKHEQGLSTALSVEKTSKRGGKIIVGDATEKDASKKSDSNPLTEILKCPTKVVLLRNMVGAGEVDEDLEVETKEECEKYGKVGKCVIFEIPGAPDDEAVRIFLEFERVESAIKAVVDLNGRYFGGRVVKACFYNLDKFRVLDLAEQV

Kd [1]: 34.4 µM
Molecule: SAP30BP/ULM (domain or fragment)

binding result [2]: binds
B1: full-length SAP30BP, from pETM11 (natural protein, human, UniProt Q9UHR5 1-308, looked up)
chain: MAGKKNVLSSLAVYAEDSEPESDGEAGIEAVGSAAEEKGGLVSDAYGEDDFSRLGGDEDGYEEEEDENSRQSEDDDSETEKPEADDPKDNTEAEKRDPQELVASFSERVRNMSPDEIKIPPEPPGRCSNHLQDKIQKLYERKIKEGMDMNYIIQRKKEFRNPSIYEKLIQFCAIDELGTNYPKDMFDPHGWSEDSYYEALAKAQKIEMDKLEKAKKERTKIEFVTGTKKGTTTNATSTTTTTASTAVADAQKRKSKWDSAIPVTTIAQPTILTTTATLPAVVTVTTSASGSKTTVISAVGTIVKKAKQ

binding result (GST-RBM17): binds
B2: recombinant SAP30BP (GST tag removed) (natural protein, human, UniProt Q9UHR5 1-308, looked up)
chain: MAGKKNVLSSLAVYAEDSEPESDGEAGIEAVGSAAEEKGGLVSDAYGEDDFSRLGGDEDGYEEEEDENSRQSEDDDSETEKPEADDPKDNTEAEKRDPQELVASFSERVRNMSPDEIKIPPEPPGRCSNHLQDKIQKLYERKIKEGMDMNYIIQRKKEFRNPSIYEKLIQFCAIDELGTNYPKDMFDPHGWSEDSYYEALAKAQKIEMDKLEKAKKERTKIEFVTGTKKGTTTNATSTTTTTASTAVADAQKRKSKWDSAIPVTTIAQPTILTTTATLPAVVTVTTSASGSKTTVISAVGTIVKKAKQ
